The record followed here is patent publication US20220406376A1 (MacroGenics, published 2022).

Assay [1] concerns the target T1, HER2/neu on the surface of target cells (N87, JIMT-1, MCF-7, MDA-MB231) (UniProt P04626 23-1255, limits assumed).
T1 construct: whole, on cells
In words: flow cytometry on MCF-7 cells, anti-hFc APC MFI.

In assay [2] the target is T2, extracellular portion of human CD137 fused to a histidine-containing peptide (human, UniProt Q07011 24-186).
T2 construct: extracellular domain; also called huCD137; His-tagged soluble human CD137
In words: SPR (BIACORE); molecule captured on anti-human Fc; huCD137 6.25-100 nM; 1:1 Langmuir. How it is done:
(§1) The amino acid sequences of these clones were incorporated into the 5 chain diabody DART-G to yield optimized DART-G molecules (designated as DART-G1, DART-G2; DART-G3, and DART-G4). The binding affinity of DART-G2, DART-G3, and DART-G4 were evaluated via BIAcore (Table 11). For such evaluation, His-tagged soluble human CD137 (huCD137) or cynomolgus monkey CD137 (cynoCD137) (containing an extracellular portion of human or cynomolgus monkey CD137 fused to a histidine-containing peptide) was passed over a surface coated with immobilized antibody. Briefly, each test molecule was captured onto an F(ab)₂ goat-anti-human Fc-coated surface and then incubated in the presence of different concentrations (6.25-100 nM) of huCD137 or cynoCD137. The kinetics of binding were determined via BIACORE® analysis binding (normalized 1:1 Langmuir binding model).
For orientation: In SPR one partner is held on a chip, and binding of the other changes the refractive index at the surface.

Assay [3] concerns the target T3, CD137 on the surface of cells (activated human T cells; engineered CHO cells) (human, UniProt Q07011 24-255).
T3 construct: whole, on cells; also called human CD137; cell surface expressed CD137
In words: flow cytometry on activated pan T cells (donor D46433, CD8 PE), anti-hFc APC MFI.

The target in assay [4] is T4, extracellular portion of cynomolgus monkey CD137 fused to a histidine-containing peptide (cynomolgus monkey, UniProt A9YYE7 24-186).
T4 construct: extracellular domain; also called cynoCD137
T4 sequence: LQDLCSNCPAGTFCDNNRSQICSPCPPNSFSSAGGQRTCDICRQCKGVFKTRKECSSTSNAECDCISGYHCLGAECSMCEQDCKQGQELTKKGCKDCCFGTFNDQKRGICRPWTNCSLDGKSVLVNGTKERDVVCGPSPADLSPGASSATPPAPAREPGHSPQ
In words: SPR (BIACORE); molecule captured on anti-human Fc; cynoCD137 6.25-100 nM; column head ×10^-4 applied as printed. How it is done: as §1

For assay [5], the target named is T3, CD137 on the surface of cells …. In words: flow cytometry on CD137-expressing CHO cells (CHO/137), anti-hFc APC MFI. For orientation: A flow cytometer gives signals particle by particle.
Assay [6] deals with T1, HER2/neu on the surface of target cells …. In words: flow cytometry on N87 cells, anti-hFc APC MFI.
In assay [7] the target is T3, CD137 on the surface of cells …. In words: flow cytometry on activated CD8+ T cells (donor D53781, CD8 FITC), anti-hFc APC MFI.
The target in assay [8] is T1, HER2/neu on the surface of target cells …. In words: flow cytometry on JIMT-1 cells, anti-hFc APC MFI.
Assay [9] concerns the target T4, extracellular portion of cynomolgus …. In words: SPR (BIACORE); molecule captured on anti-human Fc; cynoCD137 6.25-100 nM; 1:1 Langmuir. The protocol:
as §1

Substitutions are numbered along the chain they refer to.

T3 sequence (Q07011 24-255, change not shown): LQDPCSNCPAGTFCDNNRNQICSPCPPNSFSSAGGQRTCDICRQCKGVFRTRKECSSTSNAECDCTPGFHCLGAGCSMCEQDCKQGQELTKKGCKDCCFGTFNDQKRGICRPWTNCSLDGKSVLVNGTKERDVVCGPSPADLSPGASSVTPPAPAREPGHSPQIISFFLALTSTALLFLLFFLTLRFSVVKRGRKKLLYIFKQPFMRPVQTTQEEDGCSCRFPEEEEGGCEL

B1: DART-G3 (bispecific antibody, human IgG1, kappa, L234A L235A)
heavy: QVQLVQSGAEVKKPGASVKVSCKASGYTFTNYGMNWVRQAPGQGLEWMGWINTNIGEPTYTEEFKGRVTMTRDTSISTAYMELSRLRSDDTAVYYCARDDGYGNRVSYWGQGTLVTVSSASTKGPSVFPLAPSSKSTSGGTAALGCLVKDYFPEPVTVSWNSGALTSGVHTFPAVLQSSGLYSLSSVVTVPSSSLGTQTYICNVNHKPSNTKVDKRVEPKSCDKTHTCPPCPAPEAAGGPSVFLFPPKPKDTLMISRTPEVTCVVVDVSHEDPEVKFNWYVDGVEVHNAKTKPREEQYNSTYRVVSVLTVLHQDWLNGKEYKCKVSNKALPAPIEKTISKAKGQPREPQVYTLPPSREEMTKNQVSLSCAVKGFYPSDIAVEWESNGQPENNYKTTPPVLDSDGSFFLVSKLTVDKSRWQQGNVFSCSVMHEALHNRYTQKSLSLSPGK
light: DIQMTQSPSSLSASVGDRVTITCKASQDISNYLSWFQQKPGKAPKTLIYRANRLQSGVPSRFSGSGSGTDFTLTISSLQPEDFATYYCLQHDEFPWTFGQGTKLEIKRTVAAPSVFIFPPSDEQLKSGTASVVCLLNNFYPREAKVQWKVDNALQSGNSQESVTEQDSKDSTYSLSSTLTLSKADYEKHKVYACEVTHQGLSSPVTKSFNRGEC
chain 1: QVQLVQSGAEVKKPGASVKVSCKASGYTFTNYGMNWVRQAPGQGLEWMGWINTNIGEPTYTEEFKGRVTMTRDTSISTAYMELSRLRSDDTAVYYCARDDGYGNRVSYWGQGTLVTVSSASTKGPSVFPLAPSSKSTSGGTAALGCLVKDYFPEPVTVSWNSGALTSGVHTFPAVLQSSGLYSLSSVVTVPSSSLGTQTYICNVNHKPSNTKVDKRVEPKSCDKTHTCPPCPAPEAAGGPSVFLFPPKPKDTLMISRTPEVTCVVVDVSHEDPEVKFNWYVDGVEVHNAKTKPREEQYNSTYRVVSVLTVLHQDWLNGKEYKCKVSNKALPAPIEKTISKAKGQPREPQVYTLPPSREEMTKNQVSLWCLVKGFYPSDIAVEWESNGQPENNYKTTPPVLDSDGSFFLYSKLTVDKSRWQQGNVFSCSVMHEALHNHYTQKSLSLSPGGGGSGGGSGGGDIQMTQSPSSLSASVGDRVTITCRPSQDISNYLNWYQQKPDKTVKLLIYYTSRLRSGVPSRFSGSGSGTDFTFTISSLQPEDIATYFCQQGDTLPYTFGQGTKLEIKGGGSGGGGQVQVQLVQSGAEVKKPGASVKVSCKASGYTFTSYWINWVKQAPGQGLEWIGNIYPSDSYTNYNQKFKDKATITADKSTSTAYMELSSLRSEDTAVYYCTRDYGSAYSYSLWGQGTTVTVSSGGCGGGEVAALEKEVAALEKEVAALEKEVAALEK
chain 2: DIQMTQSPSSLSASVGDRVTITCRPSQDISNYLNWYQQKPDKTVKLLIYYTSRLRSGVPSRFSGSGSGTDFTFTISSLQPEDIATYFCQQGDTLPYTFGQGTKLEIKGGGSGGGGQVQLVQSGAEVKKPGASVKVSCKASGYTFTSYWINWVKQAPGQGLEWIGNIYPSDSYTNYNQKFKDKATITADKSTSTAYMELSSLRSEDTAVYYCTRDYGSAYSYSLWGQGTTVTVSSGGCGGGKVAALKEKVAALKEKVAALKEKVAALKE
notes: also called optimized DART-G3
Regarding B1, the half-maximal effective concentration (EC50 (read off the curve)) – broadly, the concentration at which the effect is half-maximal – is ~0.09 nM in assay [1]; ~0.1 nM in assay [3]; ~0.02 µg/mL in [5]; ~0.5 nM in assay [6]; ~0.02 µg/mL in assay [7]; ~0.2 nM in assay [8]. Also, the values for the Kd in [2] and in assay [9] were 64 nM and 78 nM, respectively. The koff (usually the rate constant with which the complex falls apart) in [2] stood at 0.014 s⁻¹; in assay [4], 0.018 s⁻¹. The figures for the on-rate (kon) in assay [2] and in assay [9] were 220000 M⁻¹ s⁻¹ and 230000 M⁻¹ s⁻¹, respectively.

B2: DART-G2 (bispecific antibody, human IgG1, kappa, L234A L235A)
heavy: B1 heavy
light: B1 light
chain 1: B1 chain 1 with Y682M, L684T
chain 2: B1 chain 2 with Y221M, L223T
notes: also called optimized DART-G2
On to B2, for which the “EC50 (read off the curve)” value in [1] is ~0.09 nM; in assay [3], ~0.1 nM; in assay [5], ~0.02 µg/mL; in assay [6] it was ~0.5 nM; in assay [7], ~0.02 µg/mL; in assay [8], ~0.2 nM. The values for the Kd in assay [2] and in [9] were 60 nM and 64 nM, respectively. Further, the koff in assay [2] came out at 0.021 s⁻¹; in assay [4], 0.025 s⁻¹. Further, the values for the kon in assay [2] and in assay [9] were 350000 M⁻¹ s⁻¹ and 390000 M⁻¹ s⁻¹, respectively.

B3: DART-G4 (bispecific antibody, human IgG1, kappa, L234A L235A)
heavy: B1 heavy
light: B1 light
chain 1: B1 chain 1 with A679S, S683N, L684V
chain 2: B1 chain 2 with A218S, S222N, L223V
notes: also called optimized DART-G4
Regarding B3, the “EC50 (read off the curve)” value in [1] was ~0.09 nM; in assay [3], ~0.08 nM; in assay [5], ~0.02 µg/mL; in assay [6], ~0.5 nM; in [7] it was ~0.02 µg/mL; in assay [8] it was ~0.2 nM. Also, the Kd (commonly the free concentration of one partner at which half of the binding sites on the other are occupied at equilibrium, for simple one-to-one binding) was 28 nM in assay [2] and 40 nM in [9]. Besides, the off-rate constant (koff) amounted to 0.0087 s⁻¹ in assay [2] and 0.014 s⁻¹ in assay [4]. For the same molecule, the kon (as a rule, a measure of how fast the partners come together) is 310000 M⁻¹ s⁻¹ in [2] and 350000 M⁻¹ s⁻¹ in assay [9].
